Legend:
[1] = molecular target: T1, CkSucD (Clostridium kluyveri, UniProt P38947); assay: X-ray crystal structure, […] Å; assay type: binding
T1 construct: gene sucD; His-tagged, expressed in E. coli BL21(DE3), HisTrap purified (gel filtration for crystals); homodimer
T1 sequence (P38947 1-453): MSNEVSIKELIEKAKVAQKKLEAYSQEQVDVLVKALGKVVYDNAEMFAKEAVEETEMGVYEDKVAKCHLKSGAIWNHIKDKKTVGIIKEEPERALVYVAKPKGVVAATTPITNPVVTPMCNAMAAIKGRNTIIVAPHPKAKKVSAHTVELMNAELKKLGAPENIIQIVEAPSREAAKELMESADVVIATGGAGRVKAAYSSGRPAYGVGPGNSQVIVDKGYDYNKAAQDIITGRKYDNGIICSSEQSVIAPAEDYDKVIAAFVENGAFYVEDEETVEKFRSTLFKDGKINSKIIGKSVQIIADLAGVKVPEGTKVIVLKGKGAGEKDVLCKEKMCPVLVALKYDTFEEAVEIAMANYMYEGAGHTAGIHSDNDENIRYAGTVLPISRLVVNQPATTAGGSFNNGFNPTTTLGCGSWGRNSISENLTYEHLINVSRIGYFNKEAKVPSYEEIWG

[2] = system: T2, C/C(=C\C(=O)O)C(=O)SCCNC(=O)CCNC(=O)[C@H](O)C(C)(C)COP(=O)(O)OP(=O)(O)OC[C@H]1O[C@@H](n2cnc3c(N)ncnc32)[C@H](O)[C@@H]1OP(=O)(O)O; assay: purified protein; assay type: biochemical, Clostridium kluyveri; settings: 200 mM HEPES pH 7.5, 400 µM NADPH, 400 nM enzyme, 30 °C, apparent KM
T2 construct: His-tagged, expressed in E. coli BL21(DE3), HisTrap purified (gel filtration for crystals); homodimer

[3] = system: T3, CC(C)(COP(=O)(O)OP(=O)(O)OC[C@H]1O[C@@H](n2cnc3c(N)ncnc32)[C@H](O)[C@@H]1OP(=O)(O)O)[C@@H](O)C(=O)NCCC(=O)NCCSC(=O)CCC(=O)O; assay: purified protein; assay type: biochemical, Clostridium kluyveri; settings: 200 mM HEPES pH 7.5, 400 µM NADPH, 400 nM enzyme, 30 °C, apparent KM
T3 construct: His-tagged, expressed in E. coli BL21(DE3), HisTrap purified (gel filtration for crystals); homodimer

[4] = system: CC(C)(COP(=O)(O)OP(=O)(O)OC[C@H]1O[C@@H](n2cnc3c(N)ncnc32)[C@H](O)[C@@H]1OP(=O)(O)O)[C@@H](O)C(=O)NCCC(=O)NCCSC(=O)CCCO; assay: purified protein; settings: 200 mM HEPES pH 7.5, 400 µM NADPH, 400 nM enzyme, 30 °C, apparent KM
[5] = substrate: CC(C)(COP(=O)(O)OP(=O)(O)OC[C@H]1O[C@@H](n2cnc3c(N)ncnc32)[C@H](O)[C@@H]1OP(=O)(O)O)[C@@H](O)C(=O)NCCC(=O)NCCSC(=O)CCC(=O)O; assay: purified protein; assay type: biochemical, Clostridioides difficile; settings: 200 mM HEPES pH 7.5, 400 µM NADPH, 30 °C, apparent KM
[6] = substrate: C/C(=C\C(=O)O)C(=O)SCCNC(=O)CCNC(=O)[C@H](O)C(C)(C)COP(=O)(O)OP(=O)(O)OC[C@H]1O[C@@H](n2cnc3c(N)ncnc32)[C@H](O)[C@@H]1OP(=O)(O)O; assay: purified protein; assay type: biochemical, Clostridioides difficile; settings: 200 mM HEPES pH 7.5, 400 µM NADPH, 30 °C, apparent KM
[7] = molecular target: the molecule itself; assay: crystal structure; X-ray structures of CkSucD without ligands (8CEI), with NADPH (8CEK) and with mesaconyl-C1-CoA (8CEJ); sitting-drop vapor diffusion at 288 K
[8] = substrate: C/C=C/C(=O)SCCNC(=O)CCNC(=O)[C@H](O)C(C)(C)COP(=O)(O)OP(=O)(O)OC[C@H]1O[C@@H](n2cnc3c(N)ncnc32)[C@H](O)[C@@H]1OP(=O)(O)O; assay: purified protein; settings: 200 mM HEPES pH 7.5, 400 µM NADPH, 400 nM enzyme, 30 °C, apparent KM
[9] = substrate: CC(C)(COP(=O)(O)OP(=O)(O)OC[C@H]1O[C@@H](n2cnc3c(N)ncnc32)[C@H](O)[C@@H]1OP(=O)(O)O)[C@@H](O)C(=O)NCCC(=O)NCCSC(=O)CCC(=O)O; assay: purified protein; settings: 200 mM HEPES pH 7.5, 400 µM NADPH, 400 nM enzyme, 30 °C, apparent KM
[10] = substrate: C/C(=C\C(=O)SCCNC(=O)CCNC(=O)[C@H](O)C(C)(C)COP(=O)(O)OP(=O)(O)OC[C@H]1O[C@@H](n2cnc3c(N)ncnc32)[C@H](O)[C@@H]1OP(=O)(O)O)C(=O)O; assay: purified protein; settings: 200 mM HEPES pH 7.5, 400 µM NADPH, 400 nM enzyme, 30 °C, apparent KM
[11] = substrate: CCC(=O)SCCNC(=O)CCNC(=O)[C@H](O)C(C)(C)COP(=O)(O)OP(=O)(O)OC[C@H]1O[C@@H](n2cnc3c(N)ncnc32)[C@H](O)[C@@H]1OP(=O)(O)O; assay: purified protein; settings: 200 mM HEPES pH 7.5, 400 µM NADPH, 400 nM enzyme, 30 °C, apparent KM
[12] = substrate: C/C(=C\C(=O)O)C(=O)SCCNC(=O)CCNC(=O)[C@H](O)C(C)(C)COP(=O)(O)OP(=O)(O)OC[C@H]1O[C@@H](n2cnc3c(N)ncnc32)[C@H](O)[C@@H]1OP(=O)(O)O; assay: purified protein; settings: 200 mM HEPES pH 7.5, 400 µM NADPH, 400 nM enzyme, 30 °C, apparent KM

C/C(=C\C(=O)O)C(=O)SCCNC(=O)CCNC(=O)[C@H](O)C(C)(C)COP(=O)(O)OP(=O)(O)OC[C@H]1O[C@@H](n2cnc3c(N)ncnc32)[C@H](O)[C@@H]1OP(=O)(O)O [mesaconyl-C1-CoA] was tested, and the “X-ray crystal structure, 2.1 Å” value ([1]; 5 mM ligand, pH 7.5, active site, intact ligand in chain C, covalent mesaconyl-Cys242 in chains A, B, D) was “mesaconyl-C1 CoA bound state (pdb 8CEJ”.

For NC(=O)C1=CN([C@@H]2O[C@H](COP(=O)(O)OP(=O)(O)OC[C@H]3O[C@@H](n4cnc5c(N)ncnc54)[C@H](OP(=O)(O)O)[C@@H]3O)[C@@H](O)[C@H]2O)C=CC1 [NADPH], the “X-ray crystal structure, 2.1 Å” value ([1]; 5 mM NADPH, pH 6.5 (abstract calls the ligand NADP+)) was 8CEK (with NADPH).

“CkSucD (Clostridium kluyveri DSM 555; K70R)” showed a Km [2] of 86.1 ± 15.1 µM, a kcat [2] of 0.1 ± 0.01 s⁻¹ and a Km [3] of 19.9 ± 2.3 µM. For the same molecule, the kcat [3] was 0.9 ± 0.03 s⁻¹.

Work on CkSucD (Clostridium kluyveri DSM 555) yielded a Km [4] of 48.9 ± 10.8 µM and a kcat [4] of 0.2 ± 0.01 s⁻¹.

B1: CdSucD (Clostridioides difficile R20291) (protein)
chain: MEKAVENFEDLSKEYINGYIERARKAQREFECYTQEQVDKIVKIVGKVVYYNAEYLAKLAVEETGMGVYEDKVAKNKSKAKVIYNNLKDKKSVGIIDIDRETGITKVAKPVGVVAAITPCTNPIVTPMSNAMFALKGRNAIIITPHHKAIGCSTKTVEMINEELEKIGAPENLIQILDQQSRENTRNLISSADVVIATGGMGMVKAAYSSGKPALGVGAGNVQCIIDRDVDIKEAVPKIIAGRIFDNGIICSGEQSVIVAEEMFDKIMDEFKNNKGFIVRDKVQKEAFRNAMFVNKSMNKDAVGQSVHTIAKIAGVEIPEDTKIIVIEADGPGEEDIIAKEKMCPVISAYKYKSFEEGVAIAKANLNVEGKGHSVSIHSNTVKNIEYAGENIEVSRFVINQCCATSAGGSFFNGLAPTNTLGCGSWGNNSISENLDYKHLINISRIAYYMPENEVPTDEELWG
notes: His-tagged, expressed in E. coli BL21(DE3), HisTrap purified
Work on B1 yielded a Km [5] of 213.8 ± 49.4 µM, a kcat [5] of 28.7 ± 4.1 s⁻¹ and a Km [6] of 38.3 ± 14.9 µM. It also gave a kcat [6] of 0.65 ± 0.08 s⁻¹.

B2: Succinyl-CoA reductase (SucD) from Clostridium kluyveri (enzyme)
chain: MSNEVSIKELIEKAKVAQKKLEAYSQEQVDVLVKALGKVVYDNAEMFAKEAVEETEMGVYEDKVAKCHLKSGAIWNHIKDKKTVGIIKEEPERALVYVAKPKGVVAATTPITNPVVTPMCNAMAAIKGRNTIIVAPHPKAKKVSAHTVELMNAELKKLGAPENIIQIVEAPSREAAKELMESADVVIATGGAGRVKAAYSSGRPAYGVGPGNSQVIVDKGYDYNKAAQDIITGRKYDNGIICSSEQSVIAPAEDYDKVIAAFVENGAFYVEDEETVEKFRSTLFKDGKINSKIIGKSVQIIADLAGVKVPEGTKVIVLKGKGAGEKDVLCKEKMCPVLVALKYDTFEEAVEIAMANYMYEGAGHTAGIHSDNDENIRYAGTVLPISRLVVNQPATTAGGSFNNGFNPTTTLGCGSWGRNSISENLTYEHLINVSRIGYFNKEAKVPSYEEIWG
notes: Succinyl-CoA reductase (SucD) of Clostridium kluyveri, UniProt P38947; In PDB 8CEJ Cys242 carries a mesaconyl-cysteine intermediate in subunits A, B and D; also called CkSucD; source: E. coli BL21 DE3, purified (HisTrap FF, desalting, size exclusion chromatography on Superdex 200)
B2 was tested, and the “stoichiometry N” value [7] was 2, the Km [8] was 332.6 ± 54.8 µM and the kcat [8] was 0.3 ± 0.03 s⁻¹. For the same molecule, the Km [9] was 22.6 ± 4.9 µM, the kcat [9] was 7.8 ± 0.43 s⁻¹ and the Km [10] was 25.7 ± 6.8 µM. It also gave a kcat [10] of 0.2 ± 0.02 s⁻¹, a Km [11] of 145.2 ± 144 µM and a kcat [11] of 0.1 ± 0.04 s⁻¹. For the same molecule, the Km [12] was 28.5 ± 4.7 µM and the kcat [12] was 1.6 ± 0.07 s⁻¹.
